# Measured values from paper PMC7060085 (ACS applied materials & interfaces, 2019).
# B1: Physalis mottle virus (PhMV) virus-like particle, native (unmodified recombinant coat protein) (natural protein)
# chain: MDSSEVVKVKQASIPAPGSILSQPNTEQSPAIVLPFQFEATTFGTAETAAQVSLQTADPITKLTAPYRHAQIVECKAILTPTDLAVSNPLTVYLAWVPANSPATPTQILRVYGGQSFVLGGAISAAKTIEVPLNLDSVNRMLKDSVTYTDTPKLLAYSRAPTNPSKIPTASIQISGRIRLSKPMLIAN
# Target: the molecule itself
# Experiment: SEC
protein,measurement,value
B1,binding result,binds
